Measured values: the supplement of paper PMC11246515
± gives the standard deviation of the averaged measurements.

Assay: total protein half-life in vivo (active degradation + dilution); higher = more stable protein
[1] = E. coli NCM3722 delta-clpP delta-lon delta-hslV, growth: N-lim chemostat, doubling time 6 h
[2] = E. coli NCM3722 delta-clpP, growth: N-lim chemostat, doubling time 6 h
[3] = E. coli NCM3722 delta-hslV, growth: N-lim chemostat, doubling time 6 h
[4] = E. coli NCM3722 delta-lon, growth: N-lim chemostat, doubling time 6 h
[5] = E. coli NCM3722 delta-smpB, growth: N-lim chemostat, doubling time 6 h
[6] = wild type E. coli NCM3722, growth: C-lim chemostat, doubling time 3 h
[7] = wild type E. coli NCM3722, growth: C-lim chemostat, doubling time 6 h
[8] = wild type E. coli NCM3722, growth: C-lim chemostat, doubling time 12 h
[9] = wild type E. coli NCM3722, growth: N-lim chemostat, doubling time 6 h
[10] = wild type E. coli NCM3722, growth: P-lim chemostat, doubling time 6 h
[11] = wild type E. coli NCM3722, growth: P-lim chemostat, doubling time 12 h
[12] = wild type E. coli NCM3722, growth: N-lim chemostat, doubling time 12 h

Sequence | total protein half-life in vivo [1] [h] | total protein half-life in vivo [2] [h] | total protein half-life in vivo [3] [h] | total protein half-life in vivo [4] [h] | total protein half-life in vivo [5] [h] | total protein half-life in vivo [6] [h] | total protein half-life in vivo [7] [h] | total protein half-life in vivo [8] [h] | total protein half-life in vivo [9] [h] | total protein half-life in vivo [10] [h] | total protein half-life in vivo [11] [h] | total protein half-life in vivo [12] [h]
MNSRQQTILQMVIDQGQVSVTDLAKATGVSEVTIRQDLNTLEKLSYLRRAHGFAVSLDSDDVETRMMSNYTLKRELAEFAASLVQPGETIFIENGSSNALLARTLGEQKKNVTIITVSSYIAHLLKDAPCEVILLGGVYQKKSESMVGPLTRQCIQQVHFSKAFIGIDGWQPETGFTGRDMMRTDVVNAVLEKECEAIVLTDSSKFGAVHSYSIGPVERFNRVITDSKIRASDLMHLEHSKLTIHVVDI | 6.45 ± 1.4 | 6.46 ± 0.62 | 6.54 ± 0.67 | 6.01 ± 0.45 | 5.76 ± 0.27 | 2.87 ± 0.21 | 5.51 ± 0.27 | 11.6 ± 0.87 | 5.91 ± 0.31 | 5.57 ± 0.19 | 13.3 ± 0.69 | 
MTLFTTLLVLIFERLFKLGEHWQLDHRLEAFFRRVKHFSLGRTLGMTIIAMGVTFLLLRALQGVLFNVPTLLVWLLIGLLCIGAGKVRLHYHAYLTAASRNDSHARATMAGELTMIHGVPAGCDEREYLRELQNALLWINFRFYLAPLFWLIVGGTWGPVTLMGYAFLRAWQYWLARYQTPHHRLQSGIDAVLHVLDWVPVRLAGVVYALIGHGEKALPAWFASLGDFHTSQYQVLTRLAQFSLAREPHVDKVETPKAAVSMAKKTSFVVVVVIALLTIYGALV [P0AE14] | 6.33 ± 0.16 | 6.29 |  | 5.3 ± 0.39 | 6.02 ± 0.49 | 3.246 ± 0.031 | 5.626 ± 0.0074 | 13.1 ± 3.9 | 6.63 ± 0.9 |  |  | 14 ± 2.6
MSEMTPREIVSELDKHIIGQDNAKRSVAIALRNRWRRMQLNEELRHEVTPKNILMIGPTGVGKTEIARRLAKLANAPFIKVEATKFTEVGYVGKEVDSIIRDLTDAAVKMVRVQAIEKNRYRAEELAEERILDVLIPPAKNNWGQTEQQQEPSAARQAFRKKLREGQLDDKEIEIDLAAAPMGVEIMAPPGMEEMTSQLQSMFQNLGGQKQKARKLKIKDAMKLLIEEEAAKLVNPEELKQDAIDAVEQHGIVFIDEIDKICKRGESSGPDVSREGVQRDLLPLVEGCTVSTKHGMVKTDHILFIASGAFQIAKPSDLIPELQGRLPIRVELQALTTSDFERILTEPNASITVQYKALMATEGVNIEFTDSGIKRIAEAAWQVNESTENIGARRLHTVLERLMEEISYDASDLSGQNITIDADYVSKHLDALVADEDLSRFIL [P0A6H5] | 5.09 ± 0.28 | 5.18 ± 0.56 | 4.46 ± 0.12 | 5.23 ± 0.29 | 4.21 ± 0.085 | 2.95 ± 0.36 | 5.94 ± 0.93 | 10.3 ± 0.44 | 4.79 ± 0.11 | 5.29 ± 0.054 | 10.98 ± 0.036 | 8.11 ± 0.2
MQSDKVLNLPAGYFGIVLGTIGMGFAWRYASQVWQVSHWLGDGLVILAMIIWGLLTSAFIARLIRFPHSVLAEVRHPVLSSFVSLFPATTMLVAIGFVPWFRPLAVCLFSFGVVVQLAYAAWQTAGLWRGSHPEEATTPGLYLPTVANNFISAMACGALGYTDAGLVFLGAGVFSWLSLEPVILQRLRSSGELPTALRTSLGIQLAPALVACSAWLSVNGGEGDTLAKMLFGYGLLQLLFMLRLMPWYLSQPFNASFWSFSFGVSALATTGLHLGSGSDNGFFHTLAVPLFIFTNFIIAILLIRTFALLMQGKLLVRTERAVLMKAEDKE |  |  |  |  | 6.2 |  | > 8 |  |  | 6.53 |  | 
MIIRDENYFTDKYELTRTHSEVLEAVKVVKPGKTLDLGCGNGRNSLYLAANGYDVDAWDKNAMSIANVERIKSIENLDNLHTRVVDLNNLTFDRQYDFILSTVVLMFLEAKTIPGLIANMQRCTKPGGYNLIVAAMDTADYPCTVGFPFAFKEGELRRYYEGWERVKYNEDVGELHRTDANGNRIKLRFATMLARKK | 5.25 ± 0.98 | 4.08 ± 0.48 | 4.13 ± 0.29 | 5.98 ± 0.65 | 3.94 ± 0.12 | 2.93 ± 0.1 | 5.19 ± 0.19 | 8.23 ± 1.5 | 4.09 ± 0.12 | 6.01 ± 0.67 | 11 ± 0.36 | 6.9 ± 0.16
MKTIFRYILFLALYSCCNTVSAYTSFIVGNNAGVDNYRGPSTAAQMTFNYTSTASNLVFYKPTQLGPTGVKMYWSYLDTGTGGGILYCNTSGRANPGPITIENAMVYSGKDYGGHKLFNTSVPGLYYTMLISRVWSAYDTITDIQSPGIYIGDPSNQEFFFSVTDSDLQTKGCNKADDYDKFWAIGGIVHNITVEFYTDTNFDPTLNQQVQLSSSSNYLYSFKAYSPGTKVVDHSNHIYVNFTLNNVKLTLPTCFTSILTGPSVNGSTVRMGEYSSGTIKNGASPVPFDISLQNCIRVRNIETKLVTGKVGTQNTQLLGNTLTGSTAAKGVGVLIEGLATSKNPLMTLKPNDTNSVYIDYETEDDTSDGVYPNQGNGTSQPLHFQATLKQDGNIAIEPGEFKATSTFQVTYP |  |  |  |  | 4.93 ± 0.34 |  |  | 4.96 |  |  |  | 
MRALPICLVALMLSGCSMLSRSPVEPVQSTAPQPKAEPAKPKAPRATPVRIYTNAEELVGKPFRDLGEVSGDSCQASNQDSPPSIPTARKRMQINASKMKANAVLLHSCEVTSGTPGCYRQAVCIGSALNITAK | 5.47 ± 0.43 | 5.57 ± 0.38 | 6.58 ± 0.75 | 6.404 ± 0.011 | 5.51 ± 0.33 | 2.89 ± 0.62 | 5.65 ± 0.51 | 12.4 ± 3.6 | 5.65 ± 0.16 | 6.5 ± 1.4 | 13.4 ± 0.85 | 14.7 ± 1.2
MNITPFPTLSPATIDAINVIGQWLAQDDFSGEVPYQADCVILAGNAVMPTIDAACKIARDQQIPLLISGGIGHSTTFLYSAIAQHPHYNTIRTTGRAEATILADIAHQFWHIPHEKIWIEDQSTNCGENARFSIALLNQAVERVHTAIVVQDPTMQRRTMATFRRMTGDNPDAPRWLSYPGFVPQLGNNADSVIFINQLQGLWPVERYLSLLTGELPRLRDDSDGYGPRGRDFIVHVDFPAEVIHAWQTLKHDAVLIEAMESRSLR | 5.66 ± 0.067 | 4.38 ± 0.065 | 3.92 ± 0.042 | 4.66 ± 0.2 | 3.96 ± 0.27 | > 4 | 5.74 ± 0.29 | 10.9 ± 1.3 | 4.35 ± 0.28 | 6.023 ± 0.049 | 11.4 ± 0.21 | 6.81 ± 1.1
MARSKTAQPKHSLRKIAVVVATAVSGMSVYAQAAVEPKEDTITVTAAPAPQESAWGPAATIAARQSATGTKTDTPIQKVPQSISVVTAEEMALHQPKSVKEALSYTPGVSVGTRGASNTYDHLIIRGFAAEGQSQNNYLNGLKLQGNFYNDAVIDPYMLERAEIMRGPVSVLYGKSSPGGLLNMVSKRPTTEPLKEVQFKAGTDSLFQTGFDFSDSLDDDGVYSYRLTGLARSANAQQKGSEEQRYAIAPAFTWRPDDKTNFTFLSYFQNEPETGYYGWLPKEGTVEPLPNGKRLPTDFNEGAKNNTYSRNEKMVGYSFDHEFNDTFTVRQNLRFAENKTSQNSVYGYGVCSDPANAYSKQCAALAPADKGHYLARKYVVDDEKLQNFSVDTQLQSKFATGDIDHTLLTGVDFMRMRNDINAWFGYDDSVPLLNLYNPVNTDFDFNAKDPANSGPYRILNKQKQTGVYVQDQAQWDKVLVTLGGRYDWADQESLNRVAGTTDKRDDKQFTWRGGVNYLFDNGVTPYFSYSESFEPSSQVGKDGNIFAPSKGKQYEVGVKYVPEDRPIVVTGAVYNLTKTNNLMADPEGSFFSVEGGEIRARGVEIEAKAALSASVNVVGSYTYTDAEYTTDTTYKGNTPAQVPKHMASLWADYTFFDGPLSGLTLGTGGRYTGSSYGDPANSFKVGSYTVVDALVRYDLARVGMAGSNVALHVNNLFDREYVASCFNTYGCFWGAERQVVATATFRF | 6.92 ± 0.69 | 6.41 ± 0.62 | 6.62 ± 0.65 | 6.11 ± 0.76 |  | 3.36 ± 0.23 | 6.64 ± 0.37 | 14.3 ± 1.2 | 6.14 ± 0.072 |  | 13 ± 0.45 | 11.6 ± 6.1
MSFSVDVLANIAIELQRGIGHQDRFQRLITTLRQVLECDASALLRYDSRQFIPLAIDGLAKDVLGRRFALEGHPRLEAIARAGDVVRFPADSELPDPYDGLIPGQESLKVHACVGLPLFAGQNLIGALTLDGMQPDQFDVFSDEELRLIAALAAGALSNALLIEQLESQNMLPGDATPFEAVKQTQMIGLSPGMTQLKKEIEIVAASDLNVLISGETGTGKELVAKAIHEASPRAVNPLVYLNCAALPESVAESELFGHVKGAFTGAISNRSGKFEMADNGTLFLDEIGELSLALQAKLLRVLQYGDIQRVGDDRCLRVDVRVLAATNRDLREEVLAGRFRADLFHRLSVFPLSVPPLRERGDDVILLAGYFCEQCRLRQGLSRVVLSAGARNLLQHYSFPGNVRELEHAIHRAVVLARATRSGDEVILEAQHFAFPEVTLPTPEVAAVPVVKQNLREATEAFQRETIRQALAQNHHNWAACARMLETDVANLHRLAKRLGLKD |  |  |  | 4.32 | 3.19 ± 0.46 | 2.33 |  | 7.42 ± 0.3 | 3.76 |  | 7.35 ± 0.38 | 5.2 ± 0.5
MQKVKLPLTLDPVRTAQKRLDYQGIYTPDQVERVAESVVSVDSDVECSMSFAIDNQRLAVLNGDAKVTVTLECQRCGKPFTHQVYTTYCFSPVRSDEQAEALPEAYEPIEVNEFGEIDLLAMVEDEIILALPVVPVHDSEHCEVSEADMVFGELPEEAQKPNPFAVLASLKRK [P0AB28] | 5.71 ± 1.6 | 5.08 ± 1.3 | 3.49 ± 0.1 | 3.58 ± 0.24 | 3.21 ± 0.78 | 1.93 ± 0.19 | 4.48 ± 0.12 | 7.12 ± 0.54 | 3.66 ± 0.32 | 4.32 ± 0.3 | 8.64 ± 0.14 | 5.22 ± 0.26
